B1: CD8B200 (antibody, human IgG1, kappa, V domains shown)
VH: EVQLQQSGAELVKPGASVKLSCKASGYTFTNYWIHWVKQRPGQGLEWIGNIDPSDSETHYNQKFKDKATLTVDKSSSTAYMQLISLTSEDSAVYYCASGLTGTGYYWGQGTTLTVSS
VL: DIQMTQTTSSLSASLGDRVTITCRASQDISPYLNWYQQKPEGTIKLLIYYTSKLHSGVPSRFSGSGSGTDYSLTISNLEQEDIATYFCQQDNTLPYTFGSGTKLELKR
notes: full-length human IgG1, kappa
B2: CD8B246 (antibody, human IgG1, kappa, V domains shown)
VH: QVQLKESGPGILKPSQTLSLTCSFSGFSLSTSGMNVGWIRQPSGKGLEWLAHIWWDDDKYYNPSLKSQLTISKDTSRNQVFLKITSVDTADTATYYCARRGNYGNYEFAYWGQGTTLTVSS
VL: DIQMTQTTSSLSASLGDRVTISCRASQDIRNYLNWYQQKPDGTVKLLIYHTSRLHSGVPSRFSGSGSGTDYSLTISNLEQEDIATYFCQQGNTLPWTFGAGTKLELKR
notes: full-length human IgG1, kappa
B3: CD8B270 (antibody, human IgG1, kappa, V domains shown)
VH: QVQLQQPGAELVKPGASVMLSCKASGYTFTNYWMHWVKQRPGQGLEWIGNIDPSDSETHYNQKFKDKATLTVDKSSSTAYMQLSSLTSEDSAVYYCASGLTGTGYYWGQGTTLTVSS
VL: DIQMTQTTSSLSASLGDRVTITCRASQDIRPYLNWYQQKPEGTIKLLIYFTSKLHSGVPSRFSGSGSGTDYSLTISNLEQEDIATYFCQQDNTLPYTFGSGTKLELKR
notes: full-length human IgG1, kappa
B4: CD8B304 (antibody, human IgG1, kappa, V domains shown)
VH: QVTLKESGPGILKPSQTLSLTCSFSGFSLSTSGMNVGWIRQPSGKGLEWLAHIWWDDDKYYNPSLKSQLTISKDTSRNQVFLKITSVDTADTATYYCARRGNYGNYEFAYWGQGTTVTVSS
VL: DIQMTQTTSSLSASLGDRVTISCRASQDIRNYLNWYQQKPDGTVKLLIYHTSRLHSGVPSRFSGSGSGTDYSLTISNLDQEDIATYFCQQGNTLPWTFGAGTKLELKR
notes: full-length human IgG1, kappa
B5: CD8B240 (antibody, human IgG1, kappa)
heavy: not shown
light: DIVMTQSPATLSVTPGDRVSLSCRASQSISDFLHWYQQKSHESPRLLIKYASQSISGIPSRFSGSGSGSDFTLTINSVEPEDVGVYYCQNGHSFPYTFGSGTKLEIKRTVAAPSVFIFPPSDEQLKSGTASVVCLLNNFYPREAKVQWKVDNALQSGNSQESVTEQDSKDSTYSLSSTLTLSKADYEKHKVYACEVTHQGLSSPVTKSFNRGEC
notes: full-length human IgG1, kappa
B6: CD8B191 (antibody, human IgG1, kappa)
heavy: not shown
light: DIVLTQSPATLSVTPGDRVSLSCRASQSISDFLHWYQQKSHESPRLLIKYASQSISGIPSRFSGSGSGSDFTLTINSVEPEDVGVYYCQNGHSFPYTFGSGTKLEIKRTVAAPSVFIFPPSDEQLKSGTASVVCLLNNFYPREAKVQWKVDNALQSGNSQESVTEQDSKDSTYSLSSTLTLSKADYEKHKVYACEVTHQGLSSPVTKSFNRGEC
notes: full-length human IgG1, kappa
B7: CD8B271 (antibody, human IgG1, kappa, V domains shown)
VH: DVQLQESGPGLVAPSQSLSITCTVSGFSLSIYSIHWVRQPPGKGLEWLGMIWGGGDTDYNSALKSRLSISKDNSESQVFLKMNSLQTDDTAMYYCARNPHYYGGTYEYFDVWGTGTTVTVSS
VL: DIQMTQTTSSLSASLGDRVTISCSASQGISNYLNWYQQKPDGTVKLLIYDTSILYSGVPSRFSGSGSGTDYSLTISNLEPEDVATYYCQQYSNLPYTFGSGTKLEIKR
notes: full-length human IgG1, kappa
B8: CD8B364 (antibody, human IgG1, kappa, V domains shown)
VH: QVQLQQPGAELVKPGASVKLSCKASGYTFTSYWMHWVNRRPGQGLEWIGEINPSNGDSYYNEKFKRKATLTVDISSSTAYMQLSSLTSEDSAVYYCTRSMYYDGRAGAYWGQGTTVTVSS
VL: DIVLTQSPASLSVATGEKVTIRCITSTDIDDDMNWYQQKPGEPPKLLISEGNTLRPGVPSRFSSSGYGTDFVFTIENTLSEDVADYYCLQSDNMPLTFGAGTKLELKR
notes: full-length human IgG1, kappa
B9: CD8B312 (antibody, human IgG1, kappa, V domains shown)
VH: QVQLQQPGADLVKPGASVKLSCKASGYTFTSFWMHWVKQRPGQGLEWIGNVDPSDSQTHYNQKFKDKATLTVDKSSNTAYMQLSSLTSEDSAVYYCARSTYYRYDGPFTYWGQGTTVTVSS
VL: DIVLTQSPATLSVTPGDSVSLSCRASQSINNNLHWYQQKSHESPRLLIKYTSQSISGIPSRFSGSGSGPDFTLSINSVETEDFGMYFCQQSNSWPLTFGGGTKLEIKR
notes: full-length human IgG1, kappa
B10: CD8B303 (antibody, human IgG1, kappa, V domains shown)
VH: QVQLKESGPGLVAPSQSLSITCTVSGFSLSIYSIHWVRQPPGKGLEWLGMIWGGGSTDYNSTLNSRLSIIKDNSKSQVFLKMNSLQTDDTAMYYCARNPHHYGGSTGAMDYWGQGTTVTVSS
VL: DVQMIQSPSSLSASLGGTVTITCKASQDIKKYMAWYQHKPGKGPRLLIHYTSSLQPGIPSRFSGSGSGRDYYFSISNLEPEDIATYFCLQYDNLFTFGSGTKLELKR
notes: full-length human IgG1, kappa
B11: CD8B213 (antibody, human IgG1, kappa, V domains shown)
VH: EVQLQQSGPELVKPGDSMKMSCKASGYIFTDYYMDWVKQSHGKSLEWIGYIYPNNGITSYNQKFKGRATLTIDKSSSTAYMELHSLTSEDSAVYYCARSIYYDHGGGFPYWGQGTSVTVSS
VL: DIVLTQSQKFMSTSVGDRVSVTCKASQNVDKYVAWYQQKPGQSPKALIYSASYRYSGVPDRFTGSGSGTDFTLTISNVQSEDLAEYFCQQYNTYPSFGSGTKLEMKR
notes: full-length human IgG1, kappa
B12: CD8B361 (antibody, human IgG1, kappa, V domains shown)
VH: EVQLQQSGPELVKPGNSVKMSCKASGYTFTDYYMDWVKQSHGTSLEWIGYIYPNNGDTRYNQKFKDKATLTVDKSSSTAYMELHSLTSEDSAVFYCARSIYYDHGGGFPYWGQGTLVTVSA
VL: DIVMTQSQKFMSTSVGDRVSVTCKASQNVGTYVAWYQQKPGQSPKALIYSASYRYSGVPDRFTGSGSGTDFTLTINNVQSEDLAEYLCQQYNSYPTFGGGTRLEIKR
notes: full-length human IgG1, kappa
B13: CD8B268 (antibody, human IgG1, kappa, V domains shown)
VH: QVQLQQSGAELVKPGASVKLSCKASGYTFTVYTIHWVKQRSGQGLEWIGWFYPGSGNIKYNEKFKDKATLTADKSSHTVYMELSRLTSEDSAVYFCARHEDNHYYDGNSWFAYWGQGTLVTVSA
VL: DIQMTQSPASLSASVGQTVTITCRASGNIHNYLAWFQQKQGKSPQLLVYNAKTLADGVPSRFSGSGSGTQYSLKINSLQTEDFGNYYCQHFWNTPYTFGGGTKLEIKR
notes: full-length human IgG1, kappa
B14: CD8B273 (antibody, human IgG1, kappa, V domains shown)
VH: QVQLQQSGAELVKPGASVKLSCKASGYTFTEYTIHWVKQRSGQGLEWIGWFYPGTGSIKYNEKFKDKATLTADKSSHTVYMELSKLTSEDSAVYFCARHEDNHYYDGNSWFAYWGQGTLVTVSA
VL: DIQMTQSPASLSASVGETVTITCRASGNIHNYLAWFQQKQGKSPQLLVYNAKTLADGVPSRFSGSGSGTQYSLKINSLQAEDFGSYYCQHFWSTPYTFGSGTKLEIKR
notes: full-length human IgG1, kappa

T1 sequence (P01732 22-235, chain 1 of 2): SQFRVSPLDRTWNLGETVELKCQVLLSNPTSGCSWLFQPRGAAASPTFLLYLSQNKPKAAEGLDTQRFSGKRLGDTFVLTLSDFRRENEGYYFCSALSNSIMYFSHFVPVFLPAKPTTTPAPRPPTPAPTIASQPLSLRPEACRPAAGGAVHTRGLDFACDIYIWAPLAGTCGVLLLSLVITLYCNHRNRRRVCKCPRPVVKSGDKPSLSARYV
T1 sequence (P10966 22-210, chain 2 of 2): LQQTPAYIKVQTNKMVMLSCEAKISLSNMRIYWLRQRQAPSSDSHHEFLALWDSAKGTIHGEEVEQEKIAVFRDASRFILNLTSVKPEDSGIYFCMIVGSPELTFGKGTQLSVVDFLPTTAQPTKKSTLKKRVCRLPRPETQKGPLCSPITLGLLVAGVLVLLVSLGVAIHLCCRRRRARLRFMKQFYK

The assay addresses T1, human CD8 on human pan T cells (human, UniProt P01732 22-235; P10966 22-210).
T1 construct: Native CD8 on the CD4-negative population of human pan T cells
Nature of the assay: flow cytometry, 20 nM mAb on human pan T cells. How it is done:
Secondary antibodies were A647-conjugated goat anti human IgG Fc antibody at 2 μg/mL, and A488-conjugated mouse anti-human CD4 at 1 μg/mL in staining buffer. Live cells were also gated based on OKT8 control mAb binding. Percent CD8 positive population was calculated by percentage of CD8-positive cell count/live cell count.
(Flow cytometry measures light scatter and fluorescence of single cells or particles in a stream.)
Regarding B1, the “Cell Binding to Human PanT Signal/Background (of CD4 negative population)” value was 1990. As for B2, the “Cell Binding to Human PanT Signal/Background (of CD4 negative population)” value stood at 1110. Then B3, with 2500; and B4, with 923. With B5 the figure was 1310; with B6, 2440; with B7, 911. With B8 the figure was 1560; with B9, 1090; with B10, 1180. For the molecule B11, the “Cell Binding to Human PanT Signal/Background (of CD4 negative population)” value stood at 827. On to B12, for which the “Cell Binding to Human PanT Signal/Background (of CD4 negative population)” value was 1050. Then B13, with 1170; and B14, with 938.

The record behind these values is US20210214440A1 (Janssen / Centocor, published 2021).
